Results on 7 molecules are retold here after publication PMC5487423, “Yeast surface display identifies a family of evasins from ticks with novel polyvalent CC chemokine-binding activities” (Scientific Reports, 2017).

To fix the notation:
B1: CCL7 (ligand)
chain: not shown
notes: source: bought: Peprotech
B2: CCL18 (ligand, human, UniProt P55774 21-89, looked up)
chain: AQVGTNKELCCLVYTSWQIPQKFIVDYSETSPQCPKPGVILLTKRGRQICADPNKKWVQKYISDLKLNA
notes: source: bought: Peprotech
B3: CCL5 (ligand, human, UniProt P13501 24-91, looked up)
chain: SPYSSDTTPCCFAYIARPLPRAHIKEYFYTSGKCSNPAVVFVTRKNRQVCANPEKKWVREYINSLEMS
notes: source: bought: Peprotech
B4: CCL11 (ligand)
chain: not shown
notes: source: bought: Peprotech
B5: CCL3 (ligand, human, UniProt P10147 24-92, looked up)
chain: SLAADTPTACCFSYTSRQIPQNFIADYFETSSQCSKPGVIFLTKRSRQVCADPSEEWVQKYVSDLELSA
notes: source: bought: Peprotech
B6: CCL8 (ligand, human, UniProt P80075 24-99, looked up)
chain: QPDSVSIPITCCFNVINRKIPIQRLESYTRITNIQCPKEAVIFKTKRGKEVCADPKERWVRDSMKHLDQIFQNLKP
notes: source: bought: Peprotech
B7: CCL1 (ligand, human, UniProt P22362 24-96, looked up)
chain: KSMQVPFSRCCFSFAEQEIPLRAILCYRNTSSICSNEGLIFKLKRGKEACALDTVGWVQRHRKMLRHCPSKRK
notes: source: bought: Peprotech

One experiment concerns the target T1, P991_AMBCA, purified, C-terminal StrepII-8xHis tag (Amblyomma cajennense, UniProt A0A023FFD0 29-136).
T1 sequence: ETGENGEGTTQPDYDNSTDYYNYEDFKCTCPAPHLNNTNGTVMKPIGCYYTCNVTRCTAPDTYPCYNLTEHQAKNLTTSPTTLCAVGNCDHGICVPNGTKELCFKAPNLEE
The experiment is described as follows: BLI; Kd and koff determination: His-tagged evasin immobilised on Ni-NTA biosensor (OctetRed), chemokine dilutions from 300 nM to 0.4 nM, 30 °C, same buffer as the screen; reference protein subtracted; 1:1 model with global fit, or steady state; each experiment once. To be noted: both partners purified.
Consider B1, for which the dissociation half-life came out at 2.4 h.

For the molecule B2, the binding result is “binds”.

In the case of B3, the binding result is “binds”.

The target in the next experiment is T2, P467_RHIPU, purified, C-terminal StrepII-8xHis tag (Rhipicephalus pulchellus, UniProt L7M8Z8 22-127).
T2 sequence: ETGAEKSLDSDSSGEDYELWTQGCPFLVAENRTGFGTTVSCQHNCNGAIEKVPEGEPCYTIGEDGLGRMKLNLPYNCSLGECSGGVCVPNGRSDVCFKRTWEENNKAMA
The experiment is described as above. To be noted: both partners purified.
As for B4, the binding result was “binds”.

On to B5, for which the binding result was “binds”.

Turning to B6, the binding result was “binds”.

As for B2, the binding result is “binds”.

In the case of B7, the binding result is on record as “binds”.

As to B3, the binding result is “binds”.
